Substitutions are numbered along the chain they refer to. In names and notes the source's numbering stands.
B1: CasM.265466 D220R: variant of CasM.265466, SEQ ID NO: 1602; delivered encoded in AAV9-4A vectors PL31719, PL31720, PL31721 (protein)
chain: MSVLTRKVQLIPVGDKEERDRVYKYLRDGIEAQNRAMNLYMSGLYFAAINEASKEDRKELNQLYSRIATSSKGSAYTTDIEFPTGLASTSTLSMAVRQDFTKSLKDGLMYGRVSLPTYRKDNPLFVDVRFVALRGTKQKYNGLYHEYKSHTEFLDNLYSSDLKVYIKFANDITFQVIFGNPRKSSALRSEFQNIFEEYYKVCQSSIQFSGTKIILNMAMRIPDKEIELDEDVCVGVDLGIAIPAVCALNKNRYSRVSIGSKEDFLRVRTKIRNQRKRLQTNLKSSNGGHGRKKKMKPMDRFRDYEANWVQNYNHYVSRQVVDFAVKNKAKYINLENLEGIRDDVKNEWLLSNWSYYQLQQYITYKAKTYGIEVRKINPYHTSQRCSCCGYEDAGNRPKKEKGQAYFKCLKCGEEMNADFNAARNIAMSTEFQSGKKTKKQKKEQHENK
B2: CasPhi.12 L26R: variant of CasPhi.12, SEQ ID NO: 1603; delivered encoded in AAV9-4A vectors PL26297 or PL31718 (protein)
chain: MIKPTVSQFLTPGFKLIRNHSRTAGRKLKNEGEEACKKFVRENEIPKDECPNFQGGPAIANIIAKSREFTEWEIYQSSLAIQEVIFTLPKDKLPEPILKEEWRAQWLSEHGLDTVPYKEAAGLNLIIKNAVNTYKGVQVKVDNKNKNNLAKINRKNEIAKLNGEQEISFEEIKAFDDKGYLLQKPSPNKSIYCYQSVSPKPFITSKYHNVNLPEEYIGYYRKSNEPIVSPYQFDRLRIPIGEPGYVPKWQYTFLSKKENKRRKLSKRIKNVSPILGIICIKKDWCVFDMRGLLRTNHWKKYHKPTDSINDLFDYFTGDPVIDTKANVVRFRYKMENGIVNYKPVREKKGKELLENICDQNGSCKLATVDVGQNNPVAIGLFELKKVNGELTKTLISRHPTPIDFCNKITAYRERYDKLESSIKLDAIKQLTSEQKIEVDNYNNNFTPQNTKQIVCSKLNINPNDLPWDKMISGTHFISEKAQVSNKSEIYFTSTDKGKTKDVMKSDYKWFQDYKPKLSKEVRDALSDIEWRLRRESLEFNKLSKSREQDARQLANWISSMCDVIGIENLVKKNNFFGGSGKREPGWDNFYKPKKENRWWINAIHKALTELSQNKGKRVILLPAMRTSITCPKCKYCDSKNRNGEKFNCLKCGIELNADIDVATENLATVAITAQSMPKPTCERSGDAKKPVRARKAKAPEFHDKLAPSYTVVLREAV
B3: CasPhi.12 L26R, I471T, S223P, D703G: CasPhi.12 engineered variant, SEQ ID NO: 1607 (protein)
chain: B2 chain with S223P, I471T, D703G

Assays:
mouse PCSK9 gene = test: In vivo editing of PCSK9 in muscle tissues via AAV9-4A delivery of CasPhi.12 and CasM.265466 variants, indels by NGS; design: species or system C57BL/6J mice; settings: for inducing indels in vivo at the PCSK9 locus across different muscle tissues: summary in words
Description: The purpose of the study was to assess the capability of two effector protein variants, CasPhi.12 L26R (a variant of CasPhi.12) and CasM.265466 D220R (a variant of CasM.265466), to edit nucleic acid sequences within muscle tissues in vivo. The study focused on PCSK9 as an exemplary gene target.
In this study, an AAV9-4A vector was employed as the delivery vehicle for introducing the effector protein and gRNA into the specific target tissues. The DNA encoding the effector protein (e.g., SaCas9, CasPhi.12 L26R, or CasM.265466 D220R) and its corresponding promoter (e.g., ck8e or spc5), along with the DNA encoding the gRNA containing the targeting spacer sequence specific to PCSK9 (referred to as PCSK9 in the plasmid) and its u6 promoter were cloned into the AAV9-4A plasmid between the AAV inverted terminal repeats (ITRs), creating AAV9 constructs as follows: • 1) pssAAV-ITR-u6-PCSK9-ck8e-saCas9-bGHpolya-ITR (PL26295) • 2) pssAAV-ITR-u6-PCSK9-ck8e-L26R-wpre-hGHpolya-ITR (PL26297) • 3) pssAAV-ITR-u6-PCSK9-spc5-12-L26R-wpre-hGHpolya-ITR (PL31718) • 4) pssAAV-ITR-u6-PCSK9-ck8e-D220R-wpre-hGHpolya-ITR (PL31719) • 5) pssAAV-ITR-u6-PCSK9-spc5-12-D220R-wpre-hGHpolya-ITR (PL31720) • 6) pscAAV-ITR-u6-PCSK9-Spc5-12-D220R-HSVpolyA-ITR (PL31721)
The sequences of the gRNA designed for use in conjunction with SaCas9, CasPhi.12 L26R, or CasM.265466 D220R for targeting the mouse PCSK9 gene are provided in TABLE 14.
6-week old male C57BL/6J mice were given a single intravenous (IV) bolus through the tail vein using a 1.0 cc syringe with a 27G-⅝″ needle or a single intramuscular (IM) bolus into the gastrocnemius.
4 weeks after the treatment, the mice were euthanized for assessment. Before collecting the tissues, the mice underwent whole-body perfusion via the left ventricle using 5.0-10.0 mL of PBS to remove any remaining blood from the tissues. Tissue samples weighing 100 mg were then dissected from the liver, heart, gastrocnemius, diaphragm, pectoral, and masseter, respectively, and placed on a plate for subsequent Next-Generation Sequencing (NGS) analysis. For the intramuscular (IM) groups, both the left and right gastrocnemius were weighed and harvested. For all other groups, only the left gastrocnemius was weighed and harvested.
The genomic DNA isolated from the muscle tissues was subject to NGS and aligned to a reference DNA sequence for the analysis of insertions or deletions (indels).

DMD = DMD exon precise editing in HEK293T cells with CasPhi.12 engineered variant, MCP-RT and retRNA, Amplicon Sequencing; format: cell-based, human; settings: MCP-RT SEQ ID NO: 1608, retRNA SEQ ID NO: 1590, guide SEQ ID NO: 1327, 72 hours
Method: HEK293T cells were transfected with plasmids encoding effector protein CasPhi.12 L26R, I471T, S223P, D703G (SEQ ID NO: 1607), a reverse transcriptase (RT) (SEQ ID NO: 1608), a retRNA (SEQ ID NO: 1590), and a guide nucleic acid targeting DMD (SEQ ID NO: 1327). The effector protein was not linked to the RT, but the RT was fused to an MS2 coat protein (MCP) capable of binding an MS2 aptamer loop in the retRNA. Cells were harvested 72 hours later and cell lysates were prepared for Amplicon Sequencing. The percentage of reads containing precise edits were analyzed.

| Molecule | indel rate (mouse PCSK9 gene; diaphragm, PL31719 vector, IV administration, 4 weeks after treatment) | indel rate (mouse PCSK9 gene; heart, PL31719 vector, IV administration, 4 weeks after treatment) | indel rate (mouse PCSK9 gene; heart, second statement ('Additionally'), vector PL31719, IV administration) | fold greater indel rate in the heart compared to SaCas9 (mouse PCSK9 gene; heart, versus SaCas9 delivered in the PL26295 vector via IV administration) | indel rate (mouse PCSK9 gene; left gastrocnemius, PL31719 vector, IV administration, 4 weeks after treatment) | indel rate (mouse PCSK9 gene; left gastrocnemius, second statement ('Additionally'), vector PL31719, IV administration) | indel rate (mouse PCSK9 gene; liver, PL31719 vector, IV administration, 4 weeks after treatment) | indel rate (mouse PCSK9 gene; masseter, PL31719 vector, IV administration, 4 weeks after treatment) | indel rate (mouse PCSK9 gene; pectoral, PL31719 vector, IV administration, 4 weeks after treatment) | indel rate (mouse PCSK9 gene; pectoral, second statement ('Additionally'), vector PL31719, IV administration) | inducing indels in vivo at the PCSK9 locus across different muscle tissues (mouse PCSK9 gene) | indel rate in the PCSK9 gene (mouse PCSK9 gene; heart, PL26297 vector, IV administration, 4 weeks after treatment) | indel rate in the PCSK9 gene (mouse PCSK9 gene; heart, PL31718 vector, IV administration, 4 weeks after treatment) | indel rate in the PCSK9 gene (mouse PCSK9 gene; masseter, PL26297 vector, IM administration, 4 weeks after treatment) | indel rate in the PCSK9 gene (mouse PCSK9 gene; right gastrocnemius, PL26297 vector, IM administration, 4 weeks after treatment) | precise editing, average (percentage of reads containing precise edits) (DMD) | precise editing, one replicate (DMD) |
| --- | --- | --- | --- | --- | --- | --- | --- | --- | --- | --- | --- | --- | --- | --- | --- | --- | --- |
| B1 | about 10% | about 20% | about 11% | approximately 2 fold | about 15% | about 10% | about 25% | about 5% | about 13% | about 3% | highly efficient | – | – | – | – | – | – |
| B2 | – | – | – | – | – | – | – | – | – | – | highly efficient | about 8% | about 8% | about 3% | about 5% | – | – |
| B3 | – | – | – | – | – | – | – | – | – | – | – | – | – | – | – | 1.6% | 2.1% |

— patent US20260097134A1, “COMPOSITIONS AND METHODS FOR PRECISE EDITING OF HUMAN DYSTROPHIN” (Mammoth Biosciences, Inc., priority 2023, published 2026)
